Data taken from publication PMC12646661 (The Journal of Clinical Investigation, 2025).

Target: T1, rN2 (A/Hong Kong/1/1968), soluble recombinant neuraminidase (influenza A virus A/Hong Kong/1/1968 …)
T1 chain: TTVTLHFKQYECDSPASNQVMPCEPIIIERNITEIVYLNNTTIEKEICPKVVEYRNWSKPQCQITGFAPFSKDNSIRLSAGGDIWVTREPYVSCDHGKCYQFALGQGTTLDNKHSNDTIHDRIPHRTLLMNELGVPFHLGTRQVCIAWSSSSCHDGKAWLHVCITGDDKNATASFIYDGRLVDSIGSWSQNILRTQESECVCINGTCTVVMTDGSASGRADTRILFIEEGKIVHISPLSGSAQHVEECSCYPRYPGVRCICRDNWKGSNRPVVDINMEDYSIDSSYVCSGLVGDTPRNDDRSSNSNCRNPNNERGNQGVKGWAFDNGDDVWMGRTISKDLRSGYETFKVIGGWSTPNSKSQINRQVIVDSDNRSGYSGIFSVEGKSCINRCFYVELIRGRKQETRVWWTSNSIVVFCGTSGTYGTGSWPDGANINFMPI
Test: ELISA
Conditions: both partners purified

B1: r1G01 (recombinant version of the previously described mAb 1G01) (antibody, V domains shown)
VH: EVQLVESGGRALRPGGSLRLSCAASGFKFDDYAMSWVRQVPGKGLEFVSGLNWNGDITAYTDSVKGRFTVSRDNAKNSLYLHINSPKPEDTALYYCARTSSWGDYTRGPEPKITWYFDLWGRGTLVTVSS
VL: DIQLTQSPSFLSASVGDRITITCRASQGIDGYLAWYQQRPGKAPNLLIYAASLLQSGVPSRFSGSGYGTEFTLTISSLQPEDFATYYCQHLDSYPLFTFGPGTKVDIK
Does B1 bind?
Result: binds

B2: rFNI9 (recombinant version of the broadly neutralizing NA antibody FNI9) (antibody, V domains shown)
VH: QVHLVQSGAEVKEPGSSVTVSCKASGGSFNNQAISWVRQAPGQGLEWMGGIFPISGTPTSAQRFQGRVTFTADESTTTVYMDLSSLRSDDTAVYYCARAGSDYFNRDLGWENYYFASWGQGTLVTVSS
VL: EIVMTQSPATLSLSSGERATLSCRASRSVSSNLAWYQQKPGQAPRLLIYDASTRATGFSARFAGSGSGTEFTLTISSLQSEDSAIYYCQQYNNWPPWTFGQGTKVEIK
Does B2 bind?
Result: binds
